Kd and koff data for four molecules are collected here from patent US20140302035A1 (MERRIMACK PHARMACEUTICALS, published 2014).

In this test the target is T1, Human EpCAM-Fc-his tagged (human).
T1 construct: also called Recombinant polyhistidine-tagged EpCAM-Fc; recombinant EpCAM
The experiment in a line: BLI (ForteBio Octet), antibody loaded on Protein A tips, recombinant polyhistidine-tagged EpCAM-Fc in solution, 1:1 model. The method, then: For Octet analysis, all reagents and samples are brought to room temperature. Protein A sensor tips (ForteBio, #18-5010) are hydrated for 10 minutes in 1×PBS. Assay steps include: 1-2 minutes of equilibration in 1×PBS, 4 minutes of antibody loading (concentration of 50 μg/ml in 1×PBS), 1-2 minutes of baseline stabilization, 4 minutes of antibody:antigen association, and 4 minutes of antibody:antigen dissociation. 1×PBS is used as the matrix throughout. Data are analyzed with Octet Data Analysis software, processed, and fit to a 1:1 binding model to determine kinetic parameters (Kd, kₒₙ and kdiss).
Table A-2 describes approximate EpCAM binding affinity and dissociation rate as determined for Ab#1, Ab#2, Ab#3, Ab#4, Ab#5, Ab#6, Ab#7, Ab#8, Ab#9, Ab#10, Ab#11, Ab#12, and Ab#13.

T1 sequence (chain, as listed by the source): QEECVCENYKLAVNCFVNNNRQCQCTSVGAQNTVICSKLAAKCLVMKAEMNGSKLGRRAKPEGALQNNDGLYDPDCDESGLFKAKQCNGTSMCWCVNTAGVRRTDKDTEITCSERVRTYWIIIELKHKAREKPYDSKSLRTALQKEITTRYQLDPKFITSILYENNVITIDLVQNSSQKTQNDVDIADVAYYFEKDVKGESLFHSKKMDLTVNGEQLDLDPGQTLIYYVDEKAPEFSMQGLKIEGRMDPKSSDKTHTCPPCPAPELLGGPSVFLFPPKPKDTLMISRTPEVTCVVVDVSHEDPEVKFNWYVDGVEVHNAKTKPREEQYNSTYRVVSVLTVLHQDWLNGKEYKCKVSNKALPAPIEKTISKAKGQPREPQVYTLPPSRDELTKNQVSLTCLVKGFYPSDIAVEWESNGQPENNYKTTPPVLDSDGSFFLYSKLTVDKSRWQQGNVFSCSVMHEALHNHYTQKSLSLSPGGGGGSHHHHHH

B1: Ab#8 (bispecific antibody, human IgG1, kappa)
heavy: QLQLQESGPGLVKPSETLSLTCTVSGGSISSSVYYWSWIRQPPGKGLEWIGVIYPSGNTYYSPSLKSRVTISVDTSKNQFSLKLSSVTAADTAVYYCARTIYDLFDIWGQGTMVTVSSASTKGPSVFPLAPSSKSTSGGTAALGCLVKDYFPEPVTVSWNSGALTSGVHTFPAVLQSSGLYSLSSVVTVPSSSLGTQTYICNVNHKPSNTKVDKKVEPKSCDKTHTCPSCPAPEFLGGPSVFLFPPKPKDTLMISRTPEVTCVVVDVSQEDPEVQFNWYVDGVEVHNAKTKPREEQFNSKYRVVSVLTVLHQDWLNGKEYKCKVSNKGLPSSIEKTISKAKGQPREPQVYTLPPSREEMTKNQVSLSCAVKGFYPSDIAVEWESNGQPENNYKTTPPVLDSDGSFFLVSKLTVDKSRWQQGNVFSCSVMHEALHNHYTQKSLSLSKSCDKTGGGGSGGGGSGGGGSGGGGSGGGGSGGGGSGGGGSGGGGSCPSCPAPEFLGGPSVFLFPPKPKDTLMISRTPEVTCVVVDVSQEDPEVQFNWYVDGVEVHNAKTKPREEQFNSDYRVVSVLTVLHQDWLNGKEYKCKVSNKGLPSSIEKTISKAKGQPREPQVYTLPPSREEMTKNQVSLWCLVKGFYPSDIAVEWESNGQPENNYKTTPPVLDSDGSFFLYSKLTVDKSRWQQGNVFSCSVMHEALHNHYTQKSLSLSGECGGGGSGGGGSQVQLVQSGAEVKKPGESVKISCKASGYTFTNYGMNWVRQAPGQGLKWMGWINTYTGESTYADDFKGRFAFSLDTSASTAYLQLSSLRSEDTAVYFCARFAIKGDYWGQGTLVTVSSASTGGGGSGGGGSGGGGSGGGGSDIVMTQSPLSLPVTPGEPASISCRSTKSLLHSDGITYLYWYLQKPGQSPQLLIYQMSNLASGVPDRFSSSGSGTDFTLKISRVEAEDEGVYYCAQNLEIPRTFGGGTKLEIKRT
light: DIQMTQSPSSVSASVGDRVTITCRASQGISSWLAWYQQKPGKAPKLLIYAASSLQSGVPSRFSGSGSGTDFTLTISSLQPEDFATYYCLQANSFPPTFGGGTKVEIKRTVAAPSVFIFPPSDEQLKSGTASVVCLLNNFYPREAKVQWKVDNALQSGNSQESVTEQDSKDSTYSLSSTLTLSKADYEKHKVYACEVTHQGLSSPVTKSFNRGEC
notes: Anti-c-Met Fab / tandem Fc / anti-EpCAM scFv TFcBA; also called Antibody #8
Consider B1, for which the Kd is 16.7 nM and the koff was 0.00098 s⁻¹.

B2: Ab#9 (bispecific antibody, human IgG1, kappa)
heavy: QLQLQESGPGLVKPSETLSLTCTVSGGSISSSVYYWSWIRQPPGKGLEWIGVIYPSGNTYYSPSLKSRVTISVDTSKNQFSLKLSSVTAADTAVYYCARTIYDLFDIWGQGTMVTVSSASTKGPSVFPLAPSSKSTSGGTAALGCLVKDYFPEPVTVSWNSGALTSGVHTFPAVLQSSGLYSLSSVVTVPSSSLGTQTYICNVNHKPSNTKVDKKVEPKSCDKTHTCPSCPAPEFLGGPSVFLFPPKPKDTLMISRTPEVTCVVVDVSQEDPEVQFNWYVDGVEVHNAKTKPREEQFNSKYRVVSVLTVLHQDWLNGKEYKCKVSNKGLPSSIEKTISKAKGQPREPQVYTLPPSREEMTKNQVSLSCAVKGFYPSDIAVEWESNGQPENNYKTTPPVLDSDGSFFLVSKLTVDKSRWQQGNVFSCSVMHEALHNHYTQKSLSLSKSCDKTGGGGSGGGGSGGGGSGGGGSGGGGSGGGGSGGGGSGGGGSCPSCPAPEFLGGPSVFLFPPKPKDTLMISRTPEVTCVVVDVSQEDPEVQFNWYVDGVEVHNAKTKPREEQFNSDYRVVSVLTVLHQDWLNGKEYKCKVSNKGLPSSIEKTISKAKGQPREPQVYTLPPSREEMTKNQVSLWCLVKGFYPSDIAVEWESNGQPENNYKTTPPVLDSDGSFFLYSKLTVDKSRWQQGNVFSCSVMHEALHNHYTQKSLSLSGECGGGGSGGGGSQVQLQQSGGGLVKPGESVKISCAASGYTFTNYGMNWVKQAPGKGLKWMGWINTYTGESTYADDFKGRFTFSLETSASAAYLQINSLRPEDTAVYFCARFAIKGDYWGQGTTVTVSSASTGGGGSGGGGSGGGGSGGGGSGDIVMTQSPSSLSASVGDKATITCRSTKSLLHSNGITYLYWYLQKPGKAPKLLIYQMSNLASGVPDRFSSSGSGTEFTLTISSVQPEDEGTYYCAQNLEIPRTFGQGTKLEIK
light: DIQMTQSPSSVSASVGDRVTITCRASQGISSWLAWYQQKPGKAPKLLIYAASSLQSGVPSRFSGSGSGTDFTLTISSLQPEDFATYYCLQANSFPPTFGGGTKVEIKRTVAAPSVFIFPPSDEQLKSGTASVVCLLNNFYPREAKVQWKVDNALQSGNSQESVTEQDSKDSTYSLSSTLTLSKADYEKHKVYACEVTHQGLSSPVTKSFNRGEC
notes: Anti-c-Met Fab / tandem Fc / anti-EpCAM scFv TFcBA; also called Antibody #9
B2: the Kd was found to be 10 nM and the koff was found to be 0.00043 s⁻¹.

B3: Ab#11 (bispecific antibody, human IgG1, kappa)
heavy: QLQLQESGPGLVKPSETLSLTCTVSGGSISSSVYYWSWIRQPPGKGLEWIGVIYPSGNTYYSPSLKSRVTISVDTSKNQFSLKLSSVTAADTAVYYCARTIYDLFDIWGQGTMVTVSSASTKGPSVFPLAPSSKSTSGGTAALGCLVKDYFPEPVTVSWNSGALTSGVHTFPAVLQSSGLYSLSSVVTVPSSSLGTQTYICNVNHKPSNTKVDKKVEPKSCDKTHTCPSCPAPEFLGGPSVFLFPPKPKDTLMISRTPEVTCVVVDVSQEDPEVQFNWYVDGVEVHNAKTKPREEQFNSKYRVVSVLTVLHQDWLNGKEYKCKVSNKGLPSSIEKTISKAKGQPREPQVYTLPPSREEMTKNQVSLSCAVKGFYPSDIAVEWESNGQPENNYKTTPPVLDSDGSFFLVSKLTVDKSRWQQGNVFSCSVMHEALHNHYTQKSLSLSKSCDKTGGGGSGGGGSGGGGSGGGGSGGGGSGGGGSGGGGSGGGGSCPSCPAPEFLGGPSVFLFPPKPKDTLMISRTPEVTCVVVDVSQEDPEVQFNWYVDGVEVHNAKTKPREEQFNSDYRVVSVLTVLHQDWLNGKEYKCKVSNKGLPSSIEKTISKAKGQPREPQVYTLPPSREEMTKNQVSLWCLVKGFYPSDIAVEWESNGQPENNYKTTPPVLDSDGSFFLYSKLTVDKSRWQQGNVFSCSVMHEALHNHYTQKSLSLSGECGGGGSGGGGSDIVMTQSPSSLSASVGDKATITCRSTKSLLHSNGITYLYWYLQKPGKAPKLLIYQMSNLASGVPDRFSSSGSGTEFTLTISSVQPEDEGTYYCAQNLEIPRTFGQGTKLEIKRTGGGGSGGGGSGGGGSGGGGSGQVQLQQSGGGLVKPGESVKISCAASGYTFTNYGMNWVKQAPGKGLKWMGWINTYTGESTYADDFKGRFTFSLETSASAAYLQINSLRPEDTAVYFCARFAIKGDYWGQGTTVTVSS
light: DIQMTQSPSSVSASVGDRVTITCRASQGISSWLAWYQQKPGKAPKLLIYAASSLQSGVPSRFSGSGSGTDFTLTISSLQPEDFATYYCLQANSFPPTFGGGTKVEIKRTVAAPSVFIFPPSDEQLKSGTASVVCLLNNFYPREAKVQWKVDNALQSGNSQESVTEQDSKDSTYSLSSTLTLSKADYEKHKVYACEVTHQGLSSPVTKSFNRGEC
notes: Anti-c-Met Fab / tandem Fc / anti-EpCAM scFv TFcBA; also called Antibody #11
B3: the Kd was 4.57 nM and the koff came out at 0.000409 s⁻¹.

B4: Ab#10 (bispecific antibody, human IgG1, kappa)
heavy: QLQLQESGPGLVKPSETLSLTCTVSGGSISSSVYYWSWIRQPPGKGLEWIGVIYPSGNTYYSPSLKSRVTISVDTSKNQFSLKLSSVTAADTAVYYCARTIYDLFDIWGQGTMVTVSSASTKGPSVFPLAPSSKSTSGGTAALGCLVKDYFPEPVTVSWNSGALTSGVHTFPAVLQSSGLYSLSSVVTVPSSSLGTQTYICNVNHKPSNTKVDKKVEPKSCDKTHTCPSCPAPEFLGGPSVFLFPPKPKDTLMISRTPEVTCVVVDVSQEDPEVQFNWYVDGVEVHNAKTKPREEQFNSKYRVVSVLTVLHQDWLNGKEYKCKVSNKGLPSSIEKTISKAKGQPREPQVYTLPPSREEMTKNQVSLSCAVKGFYPSDIAVEWESNGQPENNYKTTPPVLDSDGSFFLVSKLTVDKSRWQQGNVFSCSVMHEALHNHYTQKSLSLSKSCDKTGGGGSGGGGSGGGGSGGGGSGGGGSGGGGSGGGGSGGGGSCPSCPAPEFLGGPSVFLFPPKPKDTLMISRTPEVTCVVVDVSQEDPEVQFNWYVDGVEVHNAKTKPREEQFNSDYRVVSVLTVLHQDWLNGKEYKCKVSNKGLPSSIEKTISKAKGQPREPQVYTLPPSREEMTKNQVSLWCLVKGFYPSDIAVEWESNGQPENNYKTTPPVLDSDGSFFLYSKLTVDKSRWQQGNVFSCSVMHEALHNHYTQKSLSLSGECGGGGSGGGGSQVQLQQSGGGLVKPGESVKISCAASGYTFTNYGMNWVKQAPGKGLKWMGWINTYTGESTYADDFKGRFTFSLETSASAAYLQINSLRPEDTAVYFCARFAIKGDYWGQGTTVTVSSASTGGGGSGGGGSGGGGSGGGGSGDIVMTQSPSSLSASVGDKATITCRSTKSLLHSDGITYLYWYLQKPGKAPKLLIYQLSNLASGVPDRFSSSGSGTEFTLTISSVQPEDEGTYYCAQNLEIPRTFGQGTKLEIK
light: DIQMTQSPSSVSASVGDRVTITCRASQGISSWLAWYQQKPGKAPKLLIYAASSLQSGVPSRFSGSGSGTDFTLTISSLQPEDFATYYCLQANSFPPTFGGGTKVEIKRTVAAPSVFIFPPSDEQLKSGTASVVCLLNNFYPREAKVQWKVDNALQSGNSQESVTEQDSKDSTYSLSSTLTLSKADYEKHKVYACEVTHQGLSSPVTKSFNRGEC
notes: Anti-c-Met Fab / tandem Fc / anti-EpCAM scFv TFcBA; also called Antibody #10
Take B4: the Kd came out at 26.2 nM and the koff was found to be 0.00211 s⁻¹.
